Positions count from the first letter of the chain named. Names and notes keep the numbering of the source.
B1: TIPS: Zea mays EPSPS double mutant T102I and P106S, SEQ ID NO:9; positive control (protein)
chain: AGAEEIVLQPIKEISGTVKLPGSKSLSNRILLLAALSEGTTVVDNLLNSEDVHYMLGALRTLGLSVEADKAAKRAVVVGCGGKFPVEDSKEEVQLFLGNAGIAMRSLTAAVTAAGGNATYVLDGVPRMRERPIGDLVVGLKQLGADVDCFLGTDCPPVRVNGIGGLPGGKVKLSGSISSQYLSALLMAAPLALGDVEIEIIDKLISIPYVEMTLRLMERFGVKAEHSDSWDRFYIKGGQKYKSPKNAYVEGDASSASYFLAGAAITGGTVTVEGCGTTSLQGDVKFAEVLEMMGAKVTWTETSVTVTGPPREPFGRKHLKAIDVNMNKMPDVAMTLAVVALFADGPTAIRDVASWRVKETERMVAIRTELTKLGASVEEGPDYCIITPPEKLNVTAIDTYDDHRMAMAFSLAACAEVPVAIRDPGCTRKTFPDYFDVLSTFVKN
modifications: Zea mays
notes: positive control
B2: TIPS-P126S-K296R: maize EPSPS variant, probably SEQ ID NO:11 (protein)
chain: B1 chain with P126S, K296R
modifications: Zea mays

Experiments:
transgenic maize plants [1] = assay: Glyphosate spray test on R0 transgenic maize plants; type: in vivo, Zea mays; settings: for Percent of sprayed plants showing glyphosate injury: 0.75 lb ae/acre POST at V3-V4, seven days after application; for plants injured by the glyphosate spray: injury observed 1 week following treatment
Procedure: Two of the six EPSPS variants had developing plants greater than twenty-five. The extra developing R0 plants from these two variants were utilized in a glyphosate spray test to determine the tolerance provided by the EPSPS variants to a typical post glyphosate application to young plants. The R0 plants were sprayed with glyphosate applied postemergence (POST) at 0.75 lb ae (acid equivalent)/acre (0.84 kg ae/ha) at the V3-V4 stage. Treated plants were evaluated for injury seven days after glyphosate application.

[2] = system: S. cerevisiae strain sKR-024; assay: Growth of synthetic yeast strain sKR-024 expressing EPSPS variants with or without glyphosate; type: cell-based, Saccharomyces cerevisiae; settings: for growth in yeast minimal media without glyphosate: 0 mM glyphosate
Procedure: EPSPS variants were re-cloned into a clean p416-Core1p backbone and transformed into strain sKR-024 as described above. Colonies were then picked in triplicate into YSC-Ura-Leu and outgrown for 2 days at 30° C. Cultures were then diluted back to OD 0.001 in yeast minimal media (YMM) containing varying amounts of glyphosate as indicated. Growth rate measurements were then obtained using an Infinite M200 PRO microplate reader (Tecan, Männedorf, Switzerland) with incubation at 30° C. for 72-120 hours depending on growth rate of selected variants.
To determine if this system could further corroborate observations from previous literature, the well-studied EPSPS mutants T102I and P106S, and the combined double mutant TIPS (T102I-P106S) were generated and complemented into this yeast system. These mutations were reported to result in varying degrees of glyphosate resistance.
Having established low copy number and weak promoter expression of EPSPS variants, it was sought to recharacterize phenotypes under field conditions that are used in planta. […] It has been reported previously that under standard glyphosate foliar application, 0.3 mM or more of glyphosate (gly) can accumulate in a plant's root nodules and meristems. […] These trends support reported literature of mutants P106S and TIPS grown in various plant hosts. As a result, the present synthetic yeast model system closely resembles in planta observations and thus can be used to select for dual-trait EPSPS variants aimed at both enzymatic efficiency and glyphosate resistance.
Select mutants isolated from the final directed evolution campaign with the improved selection strategy were further evaluated in assorted glyphosate concentrations to determine growth characteristics. Mutants isolated from an EPSPS background were evaluated in media containing 0 mM and 0.25 mM glyphosate with the latter being the concentration at which wild-type EPSPS cannot grow after 100 hours. […] The non-glyphosate mono selection highlighted in blue represents mutations resulting from 5 subcultures in 0 mM glyphosate. The low glyphosate dual selection highlighted in light green represents mutants resulting from an additional subculture into 0.5 mM glyphosate. Lastly, the high glyphosate dual selection highlighted in dark green represent mutations isolated after subcultures in increasing levels of glyphosate, up to 10 mM.

transgenic maize plants [3] = assay: Greenhouse glyphosate spray test on hybrid (hemizygous) transgenic maize; type: in vivo, Zea mays; settings: for Average Injury At 1120 g/ha: Roundup PowerMax3, 1× field rate; for Average Injury At 1120 g/ha / Average Injury At 2240 g/ha: 18 days after treatment, scale of 0 to 100; for Average Injury At 2240 g/ha: Roundup PowerMax3, 2× field rate
Procedure: To further evaluate the performance of EPSPS variants for glyphosate tolerance, transgenic maize plants comprising a single copy of the transgene encoding the EPSPS variants TIPS-P126S-M217L-K296R or TIPS-P126S-K296R were grown to maturity. Homozygous transgenic plants were crossed with an inbred line to produce hybrid seeds.
Plants from the hybrid seeds (hemizygous for the transgenes) of two independent transformation events for each of the two variants were grown in the greenhouse for glyphosate spray test. Roundup® PowerMax3, a commercial formulation of glyphosate, was applied at the third leaf stage at two rates: 1120 gram/hectare (1× the field rate) and 2240 gram/hectare (2× the field rate). The controls included an untreated untransformed control without glyphosate treatment, an untransformed control sprayed with glyphosate, and a TIPS positive control both sprayed with glyphosate. Glyphosate herbicide injury (plant stunting, chlorosis, necrosis, malformation, and death) was assessed by visual inspection of the plants 18 days after herbicide treatment. Herbicide injury rate was presented on a scale of 0 to 100 with “0” being no visible crop injury and “100” being complete crop injury or death.

Molecule	Percent of sprayed plants showing glyphosate injury (transgenic maize plants [1]) [%]	plants injured by the glyphosate spray (transgenic maize plants [1])	growth in yeast minimal media without glyphosate [2]	growth in glyphosate ([2]; 0.5 mM glyphosate, Core1p promoter)	order of glyphosate tolerance ([2]; 5 mM glyphosate, FIG. 1 Panel C)	tolerance to glyphosate (transgenic maize plants [3]; 2× field rate)	Average Injury At 1120 g/ha (transgenic maize plants [3])	Average Injury At 2240 g/ha (transgenic maize plants [3])	growth across glyphosate levels ([2]; 0.05 mM to 5 mM glyphosate)	tolerance to glyphosate (transgenic maize plants [3]; equivalent 1× field dose)
B1	30	Three of the ten	grew at a significant deficit	grew well in the presence of glyphosate	P106S<T102I<TIPS	minor injuries	0	1.25	–	–
B2	0	none	performed very similarly to wild-type EPSPS	–	–	minor injuries	0	17	performed extremely well in every condition of glyphosate	excellent tolerance

Reference: patent US20260275304A1, “METHODS AND COMPOSITIONS FOR GLYPHOSATE TOLERANCE IN PLANTS” (Monsanto Technology LLC, priority 2023, published 2026)
